The target of assay [1] is HLA-A*02:01. The experiment in a line: IEDB peptide-MHC binding, purified MHC/competitive/radioactivity; filed as Kd, often an IC50 or EC50 that approximates it; ≥ and ≤ were set here for values at or beyond the usual limits of such assays.
The target in assay [2] is HLA-A*02:06. Described as above.
The target of assay [3] is HLA-A*02:03. The description is as above.
Assay [4] has as its target HLA-A*02:02. The description is as above.
For assay [5], the target named is HLA-A*68:02. The assay is described as above.
The target in assay [6] is HLA-B*44:02. The assay is described as above.
Assay [7] deals with HLA-B*40:01. The assay is described as above.
Assay [8] deals with HLA-B*18:01. Described as above.
Assay [9] concerns the target HLA-B*44:03. The description is as above.
Assay [10] has as its target HLA-B*45:01. The assay is described as above.
For assay [11], the target named is HLA-B*40:02. Described as above.
The target in assay [12] is HLA-A*26:01. Described as above. The note with it: source organism: Dengue virus 2 Jamaica/1409/1983.
The target of assay [13] is HLA-B*51:01. The experiment in a line: IEDB peptide-MHC binding, purified MHC/competitive/fluorescence; filed as Kd, often an IC50 or EC50 that approximates it; ≥ and ≤ were set here for values at or beyond the usual limits of such assays.
Assay [14] has as its target HLA-A*01:01. Description: IEDB peptide-MHC binding, purified MHC/competitive/radioactivity; filed as Kd, often an IC50 or EC50 that approximates it; ≥ and ≤ were set here for values at or beyond the usual limits of such assays. Conditions: source organism: Dengue virus 4 Philippines/H241/1956.
For assay [15], the target named is HLA-A*26:01. Description: IEDB peptide-MHC binding, purified MHC/competitive/fluorescence; filed as Kd, often an IC50 or EC50 that approximates it; ≥ and ≤ were set here for values at or beyond the usual limits of such assays. Conditions: source organism: Bacillus anthracis str. A0488.
The target of assay [16] is HLA-B*15:01. The description is as above. The note with it: source organism: Bacillus anthracis str. A2012.
In assay [17] the target is HLA-B*51:01. The experiment in a line: IEDB peptide-MHC binding, purified MHC/competitive/radioactivity; filed as Kd, often an IC50 or EC50 that approximates it; ≥ and ≤ were set here for values at or beyond the usual limits of such assays. Conditions: source organism: Dengue virus 4 Dominica/814669/1981.
Setting [18] is: source organism: SARS coronavirus Tor2.
Where [19] appears, read: source organism: Mammarenavirus machupoense.
Setting [20] is: source organism: Mammarenavirus brazilense.
Setting [21] is: source organism: Trypanosoma cruzi.
Where [22] appears, read: source organism: Hepatitis C virus (isolate Th580).
Setting [23] is: source organism: Mammarenavirus lassaense.
The mark [24] stands for this setting: source organism: Dengue virus 4 Dominica/814669/1981.

As to NLPIYSEEI, the dissociation constant Kd – broadly, the constant that tells how readily two partners part at equilibrium – in assay [1] (source organism: Homo sapiens) was 66.6 nM; in assay [2] (source organism: Homo sapiens), 27.5 nM; in [3] (source organism: Homo sapiens) it was 390 nM; in [4] (source organism: Homo sapiens), 77.1 nM; in assay [5] (source organism: Homo sapiens), 39.3 nM.
Take QEIQLLAAVG: the equilibrium dissociation constant (Kd) was 883 nM in assay [6] (setting [18]); 2010 nM in assay [7] (setting [18]); 6880 nM in assay [8] (setting [18]); 440 nM in [9] (setting [18]); 121 nM in assay [10] (setting [18]); 18000 nM in [11] (setting [18]).
WLWYIKIFI: in assay [1] (source organism: HIV-1 M:B_MN), the dissociation constant (Kd) turned out to be 141 nM.
Regarding ADYSVLYNST, the dissociation constant (Kd) in assay [6] (setting [18]) was 1970 nM; in assay [7] (setting [18]), not below 69600 nM; in assay [8] (setting [18]), not below 70500 nM; in assay [9] (setting [18]), not below 45700 nM; in [10] (setting [18]), 768 nM; in assay [11] (setting [18]), not below 30200 nM.
As to PDIGELFGL, the dissociation constant Kd in [6] (setting [19]) is not below 77900 nM; in [7] (setting [19]), 12700 nM; in assay [8] (setting [19]), not below 77500 nM; in [9] (setting [19]), not below 66600 nM; in assay [10] (setting [19]), not below 77700 nM; in assay [11] (setting [19]), not below 22100 nM.
Consider YDQLLDSSL, for which the Kd in [6] (setting [20]) was not below 26500 nM; in [7] (setting [20]) it was 9990 nM; in assay [8] (setting [20]) it was 15400 nM; in assay [9] (setting [20]), not below 78100 nM; in assay [10] (setting [20]), not below 77700 nM; in assay [11] (setting [20]), 273 nM.
In the case of EVKKQRAGV, the equilibrium dissociation constant (Kd) in [12] turned out to be 9120 nM; in [5] (source organism: Dengue virus 2 Jamaica/1409/1983), 61.6 nM.
EPYPPKGPV showed a dissociation constant (Kd) in assay [13] (source organism: Vibrio vulnificus YJ016) of 828 nM.
In the case of SLLMWITQC, the Kd in assay [1] (source organism: Homo sapiens) is not below 21100 nM.
For the sequence MTTEDMLKV, the Kd in assay [14] is not below 22800 nM; in assay [5] (source organism: Dengue virus 4 Philippines/H241/1956) it was 41.8 nM.
For the sequence FVDYNFSLV, the Kd was found to be 0.655 nM in assay [2] (setting [21]), 4.24 nM in [3] (setting [21]), 0.503 nM in assay [4] (setting [21]) and 75.5 nM in assay [5] (setting [21]).
Take REIGSLLHGL: the equilibrium dissociation constant (Kd) in assay [6] (setting [20]) was 764 nM; in assay [7] (setting [20]), 9190 nM; in assay [8] (setting [20]), not below 30400 nM; in assay [9] (setting [20]) it was 878 nM; in [10] (setting [20]) it was 2750 nM; in assay [11] (setting [20]) it was 5.84 nM.
In assay [15], EGIYKLSSM returned a Kd of 43.1 nM.
Take VLSDFKTWL: the Kd in assay [2] (setting [22]) is not below 29500 nM; in assay [3] (setting [22]), 290 nM; in assay [4] (setting [22]), 263 nM; in [5] (setting [22]), not below 57400 nM.
Consider GDRWFLNRFT, for which the Kd in assay [6] (setting [18]) was not below 70200 nM; in [7] (setting [18]), not below 69600 nM; in [8] (setting [18]), not below 70500 nM; in [9] (setting [18]) it was not below 70100 nM; in [10] (setting [18]), not below 70000 nM; in assay [11] (setting [18]) it was not below 70800 nM.
Regarding GITRPTTLV, the Kd in assay [1] (setting [21]) is not below 92600 nM; in [2] (setting [21]) it was 12200 nM; in [3] (setting [21]), 1150 nM; in [4] (setting [21]) it was 13700 nM; in assay [5] (setting [21]), 11900 nM.
In [15], TVKSFLNFY returned an equilibrium dissociation constant (Kd) of 7.2 nM.
On to HVGRPTTVV, for which the Kd in [1] (setting [21]) was 9860 nM; in [2] (setting [21]), 639 nM; in assay [3] (setting [21]), 452 nM; in assay [4] (setting [21]), 1060 nM; in assay [5] (setting [21]), 21.1 nM.
Consider NENPGGYCL, for which the Kd amounted to 152 nM in assay [6] (setting [23]); 4920 nM in assay [7] (setting [23]); 73.1 nM in [8] (setting [23]); 259 nM in [9] (setting [23]); 178 nM in [10] (setting [23]); 278 nM in [11] (setting [23]).
IAIEFKSRF had a Kd in assay [16] of 279 nM.
Regarding IPVEPAFQV, the Kd in [13] (source organism: Vibrio antiquarius) amounted to 254 nM.
Regarding RLSSNSRIL, the Kd in [1] (source organism: Hepatitis B virus) is not below 10000 nM.
FPSVRYQNI showed an equilibrium dissociation constant (Kd) in assay [13] (source organism: Yersinia pestis KIM10+) of 1020 nM.
With FTVQADMGCV, the Kd in assay [2] (setting [24]) is 110 nM; in [17] it was not below 59200 nM; in assay [5] (setting [24]), 3.55 nM.
Take IISLWDQSL: the Kd in [1] (source organism: HIV-1 M:B_MN) was 279 nM.

Values taken from the Immune Epitope Database (IEDB).
